# In US20150166663A1:
# T1: mouse β6 on transfected HEK-293 cells (mouse) (UniProt Q9Z0T9)
# T1 sequence (looked up): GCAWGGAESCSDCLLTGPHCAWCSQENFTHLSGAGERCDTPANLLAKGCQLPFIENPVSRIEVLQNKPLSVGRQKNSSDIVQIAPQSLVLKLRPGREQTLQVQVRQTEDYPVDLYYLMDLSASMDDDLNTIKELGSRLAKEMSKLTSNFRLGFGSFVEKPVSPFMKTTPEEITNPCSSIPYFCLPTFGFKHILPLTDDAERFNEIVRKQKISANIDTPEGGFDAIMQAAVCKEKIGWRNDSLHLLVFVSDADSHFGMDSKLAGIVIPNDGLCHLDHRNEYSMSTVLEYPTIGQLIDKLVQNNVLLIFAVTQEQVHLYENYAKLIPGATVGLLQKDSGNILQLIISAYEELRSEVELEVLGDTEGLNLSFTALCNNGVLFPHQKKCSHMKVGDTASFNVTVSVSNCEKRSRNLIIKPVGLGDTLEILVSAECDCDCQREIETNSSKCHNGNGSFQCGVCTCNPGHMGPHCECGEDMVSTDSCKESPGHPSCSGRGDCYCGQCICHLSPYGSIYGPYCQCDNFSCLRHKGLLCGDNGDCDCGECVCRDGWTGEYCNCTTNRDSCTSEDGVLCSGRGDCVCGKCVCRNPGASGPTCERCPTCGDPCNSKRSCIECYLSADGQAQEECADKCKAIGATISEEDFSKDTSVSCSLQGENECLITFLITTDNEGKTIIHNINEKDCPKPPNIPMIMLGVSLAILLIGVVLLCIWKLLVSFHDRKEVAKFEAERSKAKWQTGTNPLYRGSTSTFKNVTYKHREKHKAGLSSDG
# What was measured:
# [1] = target: human αV on parental A375M cells (αVβ3 and αVβ5) (human) (UniProt P06756); test: cell-based or functional assay
# [2] = target: human αV on parental A375M cells (αVβ3 and αVβ5) (human) (UniProt P06756); test: FACS, supernatant, parental A375M cells (αVβ3 and αVβ5, no αVβ6)
# [3] = target: cynomolgus β6 on transfected HEK-293 cells (cynomolgus); test: FACS, purified mAb, transiently transfected HEK-293 cells (parental cells 74)
# [4] = target: mouse αV on transfected HEK-293 cells (mouse) (UniProt P43406); test: as above
# mouse αV on transfected HEK-293 cells (mouse), sequence (P43406 31-1044): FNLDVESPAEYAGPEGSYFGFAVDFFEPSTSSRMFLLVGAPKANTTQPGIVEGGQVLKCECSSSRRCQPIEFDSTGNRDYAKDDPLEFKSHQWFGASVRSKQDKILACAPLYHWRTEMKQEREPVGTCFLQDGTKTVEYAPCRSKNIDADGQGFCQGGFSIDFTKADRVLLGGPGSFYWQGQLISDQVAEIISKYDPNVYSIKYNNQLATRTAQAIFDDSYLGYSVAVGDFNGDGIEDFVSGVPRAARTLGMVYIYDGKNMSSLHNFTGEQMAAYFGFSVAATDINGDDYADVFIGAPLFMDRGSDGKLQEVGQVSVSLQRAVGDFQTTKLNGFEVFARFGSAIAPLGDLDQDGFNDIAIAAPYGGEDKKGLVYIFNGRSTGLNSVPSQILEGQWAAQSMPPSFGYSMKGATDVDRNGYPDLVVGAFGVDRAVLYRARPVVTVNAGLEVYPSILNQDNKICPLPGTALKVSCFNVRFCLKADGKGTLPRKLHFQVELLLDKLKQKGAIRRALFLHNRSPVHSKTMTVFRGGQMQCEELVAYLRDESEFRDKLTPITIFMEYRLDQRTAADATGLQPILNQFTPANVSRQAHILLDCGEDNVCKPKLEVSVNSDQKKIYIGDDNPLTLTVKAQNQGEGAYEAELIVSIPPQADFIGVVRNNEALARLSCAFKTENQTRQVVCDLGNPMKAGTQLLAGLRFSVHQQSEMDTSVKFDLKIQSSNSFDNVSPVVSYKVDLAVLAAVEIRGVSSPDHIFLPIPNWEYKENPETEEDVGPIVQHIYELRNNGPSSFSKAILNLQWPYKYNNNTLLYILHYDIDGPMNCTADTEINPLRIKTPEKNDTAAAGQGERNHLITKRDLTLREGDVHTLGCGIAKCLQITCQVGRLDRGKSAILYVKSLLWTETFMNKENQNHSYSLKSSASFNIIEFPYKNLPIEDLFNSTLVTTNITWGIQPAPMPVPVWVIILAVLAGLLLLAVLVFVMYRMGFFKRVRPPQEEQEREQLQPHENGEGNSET
# [5] = target: T1, mouse β6 on transfected HEK-293 cells (mouse); test: as above
"Percent Inhibition, adhesion of A375M cells to osteopontin peptide, 5 µg/ml [1] [%]",A375M % Shifted Cells [2] [%],A375M GeoMean [2],percent of cells shifted [3] [%],percent of cells shifted [4] [%],percent of cells shifted [5] [%],Binder
3,24,1.79,,,,"sc 133 (antibody, V domains shown) VH: QVQLVQSGAEVKKPGASVKVSCKASGYTFTGYYMHWVRQAPGQGLEWMGWINPKSGDTNYAQKFQGRVTLTRDTSTSTAYMELSRLRSDDTAVYYCARRLDVWGQGTTVTVSS VL: QSVLTQPPSVSAAPGQKVTISCSGSSSNIGNNYVSWYQQLPGTAPKLLIYDNNKRPSGIPDRFSGSKSGTSATLGITGLQTGDEADYYCGTWNSSLSAGYVFGTGTKVTV"
3,46,2.35,75,71,68,"sc 264 (antibody, V domains shown) VH: QVQLQESGPGLVKPSQTLSLTCTVSGGSISSGGYYWSWIRQHPGKGLEWIGYIYYSGRTYNNPSLKSRVTISVDTSKNQFSLKLSSVTAADTAVYYCARVATGRGDYHFYAMDVWGQGTTVTVSS VL: SYELTQPSSVSVSPGQTARITCSGDVLAKKSARWFHQKPGQAPVLVIYKDSERPSGIPERFSGSSSGTTVTLTISGAQVEDEAAYYCYSAADNNLVFGGGTKLTVL"
,24,1.84,,,,"sc 97 (antibody, V domains shown) VH: EVQLVQSGAEVKKPGESLKISCKGSGYSFTSYWIGWVRQMPGKGLEWMGIIYPGDSDTRYSPSFQGQVILSADKSISTAYLQWSSLKASDTAMYYCARHDESSGYYYVFDIWGQGTMVTVSS VL: SYELTQPPSVSVSPGQTARITCSGDALPKKYAYWYQQKSGQAPVLVIYEDIKRPSGIPERFSGSSSGTMATLTISGAQVEDEADYYCYSTDSSGNHWVFFGGGTKLTVL"
,11,16.7,,,,"sc 161 (antibody, V domains shown) VH: EVQLVQSGAEVKKPGESLKISCKGSGYSFTSYWIGWVRQMPGKGLEWMGIIYPGDSDTRYSPSFQGQVTISADKSISTAYLQWSSLKASDTAMYYCARHGIAAAGFYYYYMDVWGQGTTVTVSS VL: EIVLTQSPDTLSLSPGERASLSCRASQNVNRNYLVWYQQKPGQAPRLLIYGTSNRATGIPDRFSGSGSGTDFTLTISRLEPEDFAVYYCQQCGSLPFTFGPGTKVDIKR"
,23,1.86,,,,"sc 277 (antibody, V domains shown) VH: EVQLVQSGAEVKKPGESLKISCKGSGYSFPSYWIGWVRQMPGKGLEWMGIIYPGDSDTRYSPSFQGQVTISADKSISTAYLQWSSLKASDTAMYYCARHPMEDGMDVWGQGTTVTVSS VL: SYELTQPPSVSVSPGQTARITCSGDALPKKYAFWYQQKSGQAPVLVIYDDNKRPSGIPERFSGSSSGTMATLTITGAQVEDEADYYCYSTDSSGHHVFGGGTKLTVL"
,15,23.2,,,,"sc 320 (antibody, V domains shown) VH: EVQLVESGGGLVKPGGSLRLSCAASGYTFTNYIMHWVRQAPGKGLEWVSSISISSSYIYYADSVKGRFTISRDNAKNSLYLQMNSLRAEDTAVYYCARDPVPLERRDYYYGMDVWGQGTTVTVSS VL: QSVLTQPPSMSAAPGQKVTISCSGSSSNIGNNYVSWYQQLPGTAPKLLIYDNNKRPSGIPDRFSGSKSGTSATLGITGLQTGDEADYYCGTWDSSLSAGVFGGGTKLTVL"
